Measured values as given in publication doi:10.1101/2020.05.05.080093.

Assays:
Test in all cases: ITC
[1] = target: Heimdall_LC_3 TF-Vps4-MIT (Microtubule Interacting and Transport domain of Vps4 of Heimdallarchaeota_LC_3) (Heimdallarchaeota_LC_3)
[2] = target: Loki_GC14_75 TF-Vps4-MIT (Microtubule Interacting and Transport domain of Vps4 of Lokiarchaeum_GC14_75) (Lokiarchaeum_GC14_75)
[3] = target: Odin_LCB_4 TF-Vps4-MIT (Microtubule Interacting and Transport domain of Vps4 of Odinarchaeota_LCB_4) (Odinarchaeota_LCB_4)

Row | Substance | dH1 (Sequential Binding Sites, first site) [1] [kcal/mol] | dH2 (Sequential Binding Sites, second site) [1] [kcal/mol] | dH [3] [kcal/mol] | further results
1 | Heimdall_LC_3 TF-Vps2/24/46 (natural protein) | -473 | 931 | – | –
2 | Heimdall_LC_3 TF-Vps20/32/60 (natural protein) | 2780 | -2310 | – | –
3 | Loki_GC14_75 TF-Vps2/24/46 (natural protein) | – | – | – | dH1 (Sequential Binding Sites, first site) [2]: -121 kcal/mol; dH2 (Sequential Binding Sites, second site) [2]: 422 kcal/mol
4 | Loki_GC14_75 TF-Vps20/32/60 (natural protein) | – | – | – | dH [2]: 1420 kcal/mol
5 | Odin_LCB_4 TF-Vps20/32/60 (natural protein) | – | – | 331 | –
6 | Odin_LCB_4 Vps2/24/46 (natural protein) | – | – | 392 | –
